Test results reported in the domain aggregation screens of Martell et al. (2025).

Assay: soluble fraction after stress (log2 fold change); higher = more stays soluble; pooled small domains, quantitative proteomics
Conditions: stress: 75 degC
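Note: 20 min heating vs room temperature control held 20 min.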

Sequence | soluble fraction (log2)
HMTKPAEVRIDELMNAAQTLFLAKGVEATTISEIIASVGVAKGTFYHYFESKQHIVEALKKRYID | -1.85
HMTKQNVVPLMYRMIDTLEQFIKADVPFNIETRLARVERLRETMVSSSVTTSEKFRQVLEAYTIETD | -1.05
HMTKSEWLRESREHLGLSQTDLRNLLNTALNRSYDKSRISRWENSKENIPAEVVKQIESLIATR | -0.0559
HMTKTRTEILEYLKQNWSVTVSASDIKKHLEEKEIKANTTTIYRYLDKLLAEHVIIKYADAGSERAVYQYS | -2.23
HMTKVIEFLVSDEEHGVRADKAFVSHNQKLSRSYFKKLILNGNLYINNKVNLDPSYKLIKGSTVRIILPE | -2.58
HMTKVKIDRLFSIVQMLVNRKSVTAKELADYFNVSVRTIYRDIEILSANGIPIYATQGKGGGISILEN | -1.74
HMTKYEGLSLDLIIDGVVITHNLKLAKLDMNWLLDRLKENGWDNPKDIFYAYIDTAGNFRFQPKLKASRTR | 0.473
HMTKYREVLRMSAGGFSQRVIASTLSISRNTVASTLKRAREQNLDWEAVEQQRLSEKDIANLLFP | -3.22
HMTLAEEFNNLNGKVITRETLESLLVKAEKEQNSTISNRIRKVLQAYTADTFLIELQHTESA | -0.0241
HMTLALKQGSTGSTVKQVQQKLKNWGYYSGAVDGIFGSGTRKAVVLFQKRNKLTADGIVGSKTLEALGIYV | -2.36
HMTLDDSIALGRSLLDKGLMDFGTNLANLAEDKLRDFLSQQRYENLDDLFADIARGNRLPMFTAQQLLS | -0.0666
HMTLDVALSKEIKYMLKEEHYLPGDKLPSERKLAELFHVQRLTVRGALNLLLQDKTIISKPRSGYYVAPKR | -2.88
HMTLFDESGYTARELEIIREVANGLSNKEIADKLFLSEGTVKNYITGILAKENLSHRTALAVYYLTGRK | -1.83
HMTLHEAMEKLFRQVGRPMTTKEIAEKLNENKWYQKADGSPLTPYQIYGRAKNYPALFHREGSIIYLKGS | -0.547
HMTLKTISLTEAIKNTNEGNYSKLVLDGNELTITEQGKETPSLKTYTEPGTSLKEQGFDLSKVEFEAREQS | -0.0223
HMTLNQEELMGKTEAILFAGGEPVSLDRIAQVLGVRTPVIDSIVSALQEKYNTPTSGIQLMRL | -0.267
HMTLPELTDRELQILQLLSVGNSSQKIAKQLNISTHTVSTHRKQLLRKLGAQNGADLIRRAQKLGIL | -1.78
HMTLQEFYARVGGDYNATLSRLPSEALVKKFILKYPGDPSFAQLKDALAAQDWELAFRASHTLKGVAQN | -1.9
HMTLSAPMPGTVLKIHVKEGQRVRKGQTLVVLEAMKMEHRIQAPKAGEVTNLHFSEGDRVDMGEILVEIG | -2.34
HMTLSDDEFEIIKSLIIDTLKEEALTINALTKKINHKEAKTIQVIRFLLDNGLVAENNLMKLFVI | -1.43
HMTLTIEDQLRRLRARLGRGRAFLFSDVLVNPHDRTEIAVTLLALLELIKRREAQASQSYLFGPIEVAAA | -2.01
HMTLTLEQAAAIKNSEGEQYGKIESERLAAMSVQIDKAIKSNGHDPNKKADLERKLDAIGIILNARAAG | 0.222
HMTLVKRSAMVTAWSEFAGGRVNSKLIALQNGKAGDWIELENPQSGRKLRGRVQSDGSVRLGS | -1.07
HMTLYITDQMRKILDYVATNQEIDEKAVMDLLSIQRTRAYLIAKKMTDIGLLQVQGRGKTKTYRLAARS | -2.08
HMTLYQIGDKVVHPMHGAGVIDSVVQRKVSGQVQEFYLLKLSVGNMVVMVPTDNTGEIGMRP | -2.52
HMTMEQAEFLSRQFNLLSQRLNDPSIEWQDIADLRSEYTGEDEHRDTIRKGAKLFYEYLEAGWIKN | -0.76

Sequence | soluble fraction (log2)
HMTMKNPNGYGSVINLGKGRRRPWAARVTTGLVYDEKKDKLIQRYKYIGYADTRKEAHQILAEYNAGLPI | -1.76
HMTMMTFGEKLQNARKGAGLSQEQLAEKLSVSRSAVAKWENDNGMPDIDNLKAIAQLLDVSIDYLLEN | 0.812
HMTMNLIEIGHVVGARRAELGLTQAQLAHLSGLSRQTVVGLEKGTLSDLGVNRVGQVMAVLGLDS | -0.555
HMTMPDFGYMRVSYAEARRQLQAIGISVSTIEKVEDPSHTSATGDMVISQYPAAGSKIEGTVTLYVSVAS | -3.65
HMTMSFSELLRGLRKSRGMSQAELATAVGLSQAQVSQIETGKLLPSPELIEKLAALYGIALGSA | 0.279
HMTMTKELGQRIRAERTARKMTQEELAERADLHPTYIGQVERGEKSLTIASLEKIVEGLGISFSDLFEN | 0.244
HMTMVKYRYLTDGELKEFEEEFKHFLIANGLHSEEWERLNNEDSNKAIEVVALFSNLILDKV | -1.81
HMTMVLPDAARDKLKAIGLSIEHVEPSPVKDIFTVISREGVSYVSKDGDYIFTGSLFHVKGKDVVNTTEQA | 0.0464
HMTNEAFITPSVLEWAIKRAGVSAESIHKKAEQWVSGKARPTFKQAVDIAKTLQIPFGYLWLKEPPKEQ | -0.949
HMTNELVNVNKLLDVMEPSIPLTALEIMTRLGIKSKETLRNSYLNPAIKLGMINLTSPLKPTSKNQMYYK | -1.02
HMTNKSKQRRNEILRASQELFNKKGFHDTSINDIMRRVGAAKGVFYYYFETKDQILDTLIEQHIA | -0.978
HMTNLTPKQQQIYQFIRASTQANGYPPTLREIGQQVGVRSPSTVKYHLDNLRTLGLLHWDGGKTRSITLP | -0.77
HMTNNFIVTWRNYNEEVLEIDVNVKKGSMPKYNGKTPEREGYQFVGWDPEITEVTKDITYVAQFM | -1.92
HMTNQKEITYSQFRQELDQGSIKSVSLQGSRIRGTYVDGGISFRTLAPNDADLIPSLMKHKVDIQVLPED | 0.292
HMTNSTGWSKSGGTQVTIREGETIYNLSRRYGVPAKSIMEANGIADATAVRAGQRISIPTYSY | -0.0378
HMTNVDELIGKEAVVVKEIRPYTTGEVKLDGKVWRAMSESKQVYKVDEIVTVLRIEGVTMII | -2.46
HMTNVETLVRMRLRSIRTTLGYSLDEIAERSNLSASTVSRIETGKRALSIDVLVPLAAALQVSVDDLLRAE | -2.92
HMTNYREILRLRSLGLNHSRIAESMGISRPTVIAALQRAQTQELNWQAAESLSDIDLAQRLNP | -0.847
HMTNYYTVTFKEGDTVLKEVSVHSGDGVPYAVAPKRDDIVGWSYNGNTYTTDLNTLKIKKEVTFTAVT | 0.235
HMTPAIEKTAVIVFINGKKYYVHTVKSGETLYSIAKAYKVDEKVIKEHNPNVADGLRIDQTVKIPVPEQVK | -0.549
HMTPAPHESLTDREMEVLKLLAQGLSNQEIADKLFIGVKTVKYHITNIFSKLGVEDRTQAAIYAHKQGLA | -0.475
HMTPDDSYIAGYAAGILKHQFLIDAPELIVRNGTITIPADKVSAGDRAKVVQILSGIPGVTRVEVG | 0.224
HMTPDVHRGDTITVSLRAGAIRVRVPAKALEEGAAGGEIRVVNLTGGREYRVRVTGPGTAEAIL | -0.966
HMTPEGAYTVSEIVKVINSFADEYKVPFTMHVSGYKYEEIAQQLGLPIGTVKSRIFFARKRLQELLN | -2.45
HMTPEPVTMYITSLTEFRSEPNTEAGIIKLLDAYEEVEMIESRGEWSKISYGDQIGYILSEFLTAENRT | -0.85
HMTPILTAQQVVAALQAAGYRNVHDLEFEHGRWEADAVNAAGQRVELHINPYTGAIERERLD | 0.584

Sequence | soluble fraction (log2)
HMTPKTSVPKPGQTVVVRKGDTIYALARIHDITPADLIAWNRLDNPSQIYPGQVIRLYPQGA | -0.563
HMTPKVDLTVAEDGSASAVIAGLRVEIDAAGKVTAVAPADGTTDLSSVAPEAVKEAMDNALAAYTASKG | 0.12
HMTPLFNQGEVLKGFVLQTGTNNRVLLQIGTAKVLADAQTPLKAGEQLTLRVEATGPRTVLQILG | -0.461
HMTPLILTAQEGGERLDAFVASQVEDLTRSAAQRLLEQGAVTSGGKPLKKNAKTTPGMVVEVLLPDPQ | -0.113
HMTPPPTNSREWMEWGISHGLDANLDRSGQVVFYTDDRVVADAAELSGADLERDNMGQFVIYTGAYDKG | 0.0155
HMTPQEQWNNAYLLAKDYYDANGNLDIDEKYKTKDGFELGSWLTTQRNVYKRGKLSPEKTKKLEEIGISF | 0.0776
HMTPQGALDYSRNAKYLRDQVTAINYLKQARLSLNTTDANYRQTLEQINQAIAKHNQALQQAGVQSQQLAT | -0.00591
HMTPTPQQNNILVGQTGTTLTRLAPMGKVRVGEVTAEAKTIDGYINPRQSVEVIGFENTVVIVRAV | -0.748
HMTPVIINESGGDQDTRIEGLNDNNLLYVDASTDRVGVGVATPTQKLDVNGDVAISGGSLYLSQ | 0.183
HMTPVKAPLPGVVTKINVSVGQQVKKGENVLVLEAMKMENNIAAEADGTVSGIAVKAGDSVLEGAVLLTI | 0.0213
HMTPVTYELTVQSGAGQRIDKYLSEQLADLTRSYLQKLLKDGGVTVNGKTVKSNYKLSENDQIFLEVPDA | 0.0544
HMTPVYLNARQKQILAFLKREEPAKVGDIAHALKTISINTLKKDLLYLRQKNLIESHGVLKGTIYTVK | -1.6
HMTQEFIVPKVTGYTVEDAMNLSGVKDVFEITVDSTEKSDQPAGIILFQDPKDGSSRKSDLVIHVVVSAGS | -0.363
HMTQEQKQQISDQLRAYVEQKGSGNKAAASMNGVSSATISKVLAGKWETISEDMWRSIAAQTGH | 0.325
HMTQFSLTTEEINVLKKSYSEFTDSDKELFNKILEKYNKFKNESSNDIAFEAKILEKLQEIENFYE | -0.00344
HMTQMSVLFSELEAKDAATIADKLRERNIPYELSNNGSTILIPQEVLHDTRLSLASEGLPES | 0.0765
HMTQPAEINRLVEQMGSSDYKSRQEAYERLHQMGPGILDLIYPYRNHADPEIQTRVRELILSYRW | -0.0738
HMTQQNRDELYRRMIDAGWDQLVRNGIRSLRVEQVAAAVGIAKGTFYHFFDSKDDFIYAMLMENRQ | -3.41
HMTQSPLHWSHRPIDLSELLTYLDRDGAFVYASGHKAPFTEVVRGFEHLLNIRLGDPRDVKRSVLQR | -0.109
HMTQTGEVIRWDAERGFGFIATADGRRHVFFHVRDFRGGAAPGVGLRVGFEEIQVGGKGPRAMDVRPL | -1.28
HMTRDGMTKEAFDSLLEDIMNILLDNGLKATTMGSIAKSLKMSKRTLYEIFSSKSQMVEEAIIASHTKMM | 0.214
HMTREAILDTAEELLQRRGYNAFSYHHIAVQLGIRNAAIHYHFPAKEDLGIELVSRFRIRLAE | -0.28
HMTRLSSREAQVISLVRDGMTNQQIAERLELSPLTIKNHVQNILRKLDVSNRAQAVAKAVKARLI | -0.774
HMTRRGPLTEGDRVQVRDPKGRFHQVILVRGGRFQSNRGGFNHDDVIGRPDGQVIITDEGRQFQIL | 0.493
HMTRYEQLAAQIRQQIEDNIWQSGDRLPSLRDTVKQSGLSLMTVLQSYQLLESQGWITARPQSGYYVAHR | 0.284
